In paper PMC7064771, “Repurposed Drugs That Block the Gonococcus-Complement Receptor 3 Interaction Can Prevent and Cure Gonococcal Infection of Primary Human Cervical Epithelial Cells” (mBio, 2020):

Legend:
[1] = target: recombinant human complement receptor 3 (integrin αMβ2) (human) (UniProt P11215); assay: SPR
[2] = target: recombinant human CR3 I-domain (I-domain of CD11b) (human); assay: SPR

Sequence of N. gonorrhoeae MS11 wild-type pilin (PilE) modified with the Gal(α1-3)diNAcBac disaccharide (P02974 8-165 limits assumed): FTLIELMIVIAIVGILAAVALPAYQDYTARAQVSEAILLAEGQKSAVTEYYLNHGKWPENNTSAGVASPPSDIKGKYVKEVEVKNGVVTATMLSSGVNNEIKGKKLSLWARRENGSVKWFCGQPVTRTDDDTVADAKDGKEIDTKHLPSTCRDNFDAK

N. gonorrhoeae MS11 wild-type pilin (PilE) modified with the Gal(α1-3)diNAcBac disaccharide (from UniProt P02974 8-165) (natural protein)
Kd [1]: 907 nM | Kd [2]: 349 nM
